The target in test [1] is T1, plastid pyruvate dehydrogenase heterotetramer (imported plastid PDC E1α and E1β subunits) (Arabidopsis thaliana, UniProt O24457 69-428; Q9C6Z3 74-406).
T1 construct: also called this heterotetramer
T1 sequence 1: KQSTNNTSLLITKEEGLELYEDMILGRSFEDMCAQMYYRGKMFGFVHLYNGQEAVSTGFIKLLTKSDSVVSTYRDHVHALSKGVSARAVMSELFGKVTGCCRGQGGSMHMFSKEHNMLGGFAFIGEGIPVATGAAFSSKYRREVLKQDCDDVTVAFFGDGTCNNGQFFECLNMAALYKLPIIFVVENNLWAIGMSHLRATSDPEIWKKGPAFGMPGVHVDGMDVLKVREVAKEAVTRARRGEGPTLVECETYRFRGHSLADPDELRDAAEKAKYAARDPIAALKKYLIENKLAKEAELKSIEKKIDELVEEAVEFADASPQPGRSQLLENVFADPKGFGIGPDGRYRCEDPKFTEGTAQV
T1 sequence 2: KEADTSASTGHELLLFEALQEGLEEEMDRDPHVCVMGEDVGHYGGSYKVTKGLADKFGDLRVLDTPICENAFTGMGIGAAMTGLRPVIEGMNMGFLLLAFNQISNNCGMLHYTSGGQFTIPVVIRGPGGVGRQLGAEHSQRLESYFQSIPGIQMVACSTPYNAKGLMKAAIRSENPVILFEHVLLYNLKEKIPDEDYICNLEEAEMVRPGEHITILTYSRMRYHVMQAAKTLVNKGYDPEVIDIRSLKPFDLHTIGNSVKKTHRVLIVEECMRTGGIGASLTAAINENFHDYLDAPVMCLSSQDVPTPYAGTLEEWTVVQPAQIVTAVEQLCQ
Put plainly: in vitro import into chloroplasts and assembly.

The target in test [2] is T2, in vitro imported Arabidopsis thaliana plastid PDC E1α subunit (Arabidopsis thaliana, UniProt O24457 69-428).
T2 construct: Translated in vitro and imported into chloroplasts
T2 sequence: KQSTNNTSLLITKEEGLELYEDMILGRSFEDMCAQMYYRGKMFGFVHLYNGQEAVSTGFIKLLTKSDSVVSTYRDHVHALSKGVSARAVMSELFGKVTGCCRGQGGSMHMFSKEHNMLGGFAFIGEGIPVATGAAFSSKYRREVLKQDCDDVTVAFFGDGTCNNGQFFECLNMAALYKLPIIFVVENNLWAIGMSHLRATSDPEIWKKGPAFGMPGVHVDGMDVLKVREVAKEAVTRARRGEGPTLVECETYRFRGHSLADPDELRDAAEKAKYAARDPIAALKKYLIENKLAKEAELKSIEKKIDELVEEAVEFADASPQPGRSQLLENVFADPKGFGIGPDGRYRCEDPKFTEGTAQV
Put plainly: in vitro import into chloroplasts and assembly.

B1: in vitro imported Arabidopsis thaliana plastid PDC E2 subunit (enzyme)
chain: IREIFMPALSSTMTEGKIVSWIKTEGEKLAKGESVVVVESDKADMDVETFYDGYLAAIVVGEGETAPVGAAIGLLAETEAEIEEAKSKAASKSSSSVAEAVVPSPPPVTSSPAPAIAQPAPVTAVSDGPRKTVATPYAKKLAKQHKVDIESVAGTGPFGRITASDVETAAGIAPSKSSIAPPPPPPPPVTAKATTTNLPPLLPDSSIVPFTAMQSAVSKNMIESLSVPTFRVGYPVNTDALDALYEKVKPKGVTMTALLAKAAGMALAQHPVVNASCKDGKSFSYNSSINIAVAVAINGGLITPVLQDADKLDLYLLSQKWKELVGKARSKQLQPHEYNSGTFTLSNLGMFGVDRFDAILPPGQGAIMAVGASKPTVVADKDGFFSVKNTMLVNVTADHRIVYGADLAAFLQTFAKIIENPDSLTL
notes: Translated in vitro and imported into chloroplasts; also called imported PDC E2 subunits
For B1, the binding result in test [1] is listed as “binds”.

B2: in vitro imported Arabidopsis thaliana plastid PDC E1β subunit (enzyme)
chain: KEADTSASTGHELLLFEALQEGLEEEMDRDPHVCVMGEDVGHYGGSYKVTKGLADKFGDLRVLDTPICENAFTGMGIGAAMTGLRPVIEGMNMGFLLLAFNQISNNCGMLHYTSGGQFTIPVVIRGPGGVGRQLGAEHSQRLESYFQSIPGIQMVACSTPYNAKGLMKAAIRSENPVILFEHVLLYNLKEKIPDEDYICNLEEAEMVRPGEHITILTYSRMRYHVMQAAKTLVNKGYDPEVIDIRSLKPFDLHTIGNSVKKTHRVLIVEECMRTGGIGASLTAAINENFHDYLDAPVMCLSSQDVPTPYAGTLEEWTVVQPAQIVTAVEQLCQ
notes: Translated in vitro and imported into chloroplasts
Regarding B2, the binding result in test [2] is reported as “binds”.

For the origin of these results see US6773917 (CURATORS OF THE UNIVERSITY OF MISSOURI, dated 2004).
